Results as given in patent US20230118307A1, “THERAPEUTIC USE OF LONG-ACTING CONJUGATE OF TRIPLE AGONIST HAVING ACTIVITIES TO ALL OF GLUCAGON/GLP-1/GIP RECEPTORS FOR LUNG DISEASE” (HANMI PHARM. CO., LTD., priority 2020, published 2023).
Positions of bridges follow the written chain, without caps; N, C: chain ends. Non-standard residues stand in square brackets, D forms with d. No end group written: not given here. *: point of attachment. Acetyl(2-(4-imidazolyl)) = O=C(Cc1c[nH]cn1)*; Aib = CC(C)(N)C(=O)O

Legend:
Experiment in all cases: cell-based or functional assay
human GCG receptor = human GCG receptor (human, UniProt P47871 26-477)
human GIP receptor = target: T1, human GIP receptor (human, UniProt P48546 22-466)
T1 sequence (looked up): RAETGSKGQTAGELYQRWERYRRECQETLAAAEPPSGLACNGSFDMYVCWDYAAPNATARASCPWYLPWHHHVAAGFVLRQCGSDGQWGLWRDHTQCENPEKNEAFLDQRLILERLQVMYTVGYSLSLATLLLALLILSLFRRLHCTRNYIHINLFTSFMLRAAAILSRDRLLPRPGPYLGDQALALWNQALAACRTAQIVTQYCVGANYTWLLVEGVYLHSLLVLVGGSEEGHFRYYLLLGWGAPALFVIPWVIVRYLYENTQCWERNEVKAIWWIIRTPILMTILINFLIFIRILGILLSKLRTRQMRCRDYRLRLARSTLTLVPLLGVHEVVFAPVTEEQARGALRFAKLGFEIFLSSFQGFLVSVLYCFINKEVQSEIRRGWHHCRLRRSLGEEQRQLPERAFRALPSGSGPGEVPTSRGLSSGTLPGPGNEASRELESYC

human GLP-1 receptor = human GLP-1 receptor (human, UniProt P43220 24-463)

Chain of human GCG receptor (P47871 26-477): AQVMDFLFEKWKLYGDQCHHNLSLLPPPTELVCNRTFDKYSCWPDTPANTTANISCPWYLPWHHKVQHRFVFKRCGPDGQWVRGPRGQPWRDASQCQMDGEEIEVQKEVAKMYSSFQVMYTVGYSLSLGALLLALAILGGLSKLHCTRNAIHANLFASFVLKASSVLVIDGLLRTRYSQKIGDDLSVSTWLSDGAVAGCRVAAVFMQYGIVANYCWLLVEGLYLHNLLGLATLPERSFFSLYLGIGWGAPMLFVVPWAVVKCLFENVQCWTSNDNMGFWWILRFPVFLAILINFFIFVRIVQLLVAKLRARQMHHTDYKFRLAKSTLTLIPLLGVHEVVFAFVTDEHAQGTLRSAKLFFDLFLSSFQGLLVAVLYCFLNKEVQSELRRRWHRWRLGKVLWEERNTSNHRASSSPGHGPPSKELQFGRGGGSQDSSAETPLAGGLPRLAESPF

Row | Binder | In vitro Activity Compared to Native Peptide (%) vs. Glucagon (human GCG receptor) [%] | In vitro Activity Compared to Native Peptide (%) vs. GIP (human GIP receptor) [%] | In vitro Activity Compared to Native Peptide (%) vs. GLP-1 (human GLP-1 receptor) [%]
1 | H[Aib]QGTFTSDYSKYLDEKRQKEFVNWLLAQKC (bridge 16-20) [triple agonist of SEQ ID NO: 34] | 0.92 | 0.6 | 19.1
2 | HGQGTFTSDCSKQLDGQAAQEFVAWLLAGGPSSGAPPPS [triple agonist of SEQ ID NO: 44] | < 0.1 | < 0.1 | 1.3
3 | [Acetyl(2-(4-imidazolyl))][Aib]QGTFTSDKSSYLDERAAQDFVQWLLDGGPSSGAPPPSS [triple agonist of SEQ ID NO: 38] | – | – | 2.3
4 | Y[Aib]QGTFTSDYSKYLDEKRAKEFVQWLLDHHPSSGQPPPSC (bridge 16-20) [triple agonist of SEQ ID NO: 42] | 206 | 7.8 | 33.9
5 | H[Aib]QGTFTSDYSKYLDECRQKEFVQWLLNGGPSSGAPPPSG (bridge 16-20) [triple agonist of SEQ ID NO: 37] | 6.21 | 2.2 | 236
6 | H[Aib]QGTFTSDYSIAMDEIHQKDFVNWLLNTKC (bridge 16-20) [triple agonist of SEQ ID NO: 35] | < 0.1 | 1.3 | 7.5
7 | H[Aib]QGTFTSDYSKYLDGQHAQCFVAWLLAGGGPSSGAPPPS [triple agonist of SEQ ID NO: 39] | 0.53 | < 0.1 | 13.9
8 | H[Aib]QGTFTSDKSKYLDERACQDFVQWLLDGGPSSGAPPPS [triple agonist of SEQ ID NO: 40] | < 0.1 | < 0.1 | 75.2
9 | H[Aib]QGTFTSDKSKYLDECAAQDFVQWLLDGGPSSGAPPPS [triple agonist of SEQ ID NO: 41] | < 0.1 | < 0.1 | 34.3
10 | Y[Aib]QGTFTSDYSKYLDEKRAKEFVQWLLDHHCSSGQPPPS (bridge 16-20) [triple agonist of SEQ ID NO: 43] | 88.4 | 3.7 | 12.6
11 | H[Aib]QGTFTSDVSSYLDGQAAKEFIAWLVKGC [triple agonist of SEQ ID NO: 1] | < 0.1 | < 0.1 | 3.2
12 | H[Aib]QGTFTSDYSKYLCEKRQKEFVQWLLNGGPSSGAPPPSG (bridge 16-20) [triple agonist of SEQ ID NO: 36] | 0.39 | 0.2 | 37.4
13 | H[Aib]QGTFTSDVSSYLLGQQQKEFIAWLVKGC [triple agonist of SEQ ID NO: 4] | < 0.1 | < 0.1 | 8.5
